Experimental data taken from patent publication US20220177596A1 (Bristol-Myers Squibb, published 2022).
Positions count from the first letter of the chain named.

B1: humanized Y1238 hz25 (hz-HC5 / hz-LC5), IgG1.3f (antibody, V domains shown)
VH: QVQLVQSGAEVKKPGASVKVSCKASGYAFTNYLIEWVRQRPGQGLEWMGVINPGSGGTNYNEKFKGRVTMTADKSISTAYMELSRLRSDDTAVYYCARSQLGRRFDYWGQGTLVTVSS
VL: DIQMTQSPSSLSASVGDRVTITCKASQDVRTGVAWYQQKPGQAPKLLIYSASYRNTGVPSRFSGSRSGTDFTFTISSLQPEDIAVYYCQQHYSPPYTFGGGTKVEIK
notes: IgG1.3f heavy constant, common CL; expression supernatant; also called Sup 25
B2: humanized Y1238 hz20 (hz-HC4 / hz-LC5), IgG1.3f (antibody, V domains shown)
VH: B1 VH with R40A
VL: B1 VL
notes: IgG1.3f heavy constant, common CL; expression supernatant; also called Sup 20
B3: humanized Y1238 hz22 (hz-HC5 / hz-LC2), IgG1.3f (antibody, V domains shown)
VH: B1 VH
VL: B1 VL with Q42K, V85T
notes: IgG1.3f heavy constant, common CL; expression supernatant; also called Sup 22
B4: humanized Y1238 hz19 (hz-HC4 / hz-LC4), IgG1.3f (antibody, V domains shown)
VH: B1 VH with R40A
VL: B1 VL with A43S, P80A
notes: IgG1.3f heavy constant, common CL; expression supernatant; also called Sup 19
B5: humanized Y1238 hz32 (hz-HC7 / hz-LC2), IgG1.3f (antibody, V domains shown)
VH: B1 VH with K12V, I76S, E82Q, Y95F
VL: B1 VL with Q42K, V85T
notes: IgG1.3f heavy constant, common CL; expression supernatant; also called Sup 32
B6: humanized Y1238 hz21 (hz-HC5 / hz-LC1), IgG1.3f (antibody, V domains shown)
VH: B1 VH
VL: B1 VL with Q42K, R66G, V85T
notes: IgG1.3f heavy constant, common CL; expression supernatant; also called Sup 21
B7: humanized Y1238 hz16 (hz-HC4 / hz-LC1), IgG1.3f (antibody, V domains shown)
VH: B1 VH with R40A
VL: B1 VL with Q42K, R66G, V85T
notes: IgG1.3f heavy constant, common CL; expression supernatant; also called Sup 16
B8: humanized Y1238 hz36 (hz-HC8 / hz-LC1), IgG1.3f (antibody, V domains shown)
VH: B1 VH with K12V, M70L, I76S, E82Q, Y95F
VL: B1 VL with Q42K, R66G, V85T
notes: IgG1.3f heavy constant, common CL; expression supernatant; also called Sup 36
B9: humanized Y1238 hz7 (hz-HC2 / hz-LC2), IgG1.3f (antibody, V domains shown)
VH: B1 VH with R40A, K74T
VL: B1 VL with Q42K, V85T
notes: IgG1.3f heavy constant, common CL; expression supernatant; also called Sup 7
B10: humanized Y1238 hz35 (hz-HC7 / hz-LC5), IgG1.3f (antibody, V domains shown)
VH: B1 VH with K12V, I76S, E82Q, Y95F
VL: B1 VL
notes: IgG1.3f heavy constant, common CL; expression supernatant; also called Sup 35
B11: humanized Y1238 hz28 (hz-HC6 / hz-LC3), IgG1.3f (antibody, V domains shown)
VH: B1 VH with M70L
VL: B1 VL with A43S
notes: IgG1.3f heavy constant, common CL; expression supernatant; also called Sup 28
B12: humanized Y1238 hz41 (hz-HC9 / hz-LC1), IgG1.3f (antibody, V domains shown)
VH: B1 VH with K12V, M70L, I76S, E82Q, Y95F, L113T
VL: B1 VL with Q42K, R66G, V85T
notes: IgG1.3f heavy constant, common CL; expression supernatant; also called Sup 41
B13: humanized Y1238 hz37 (hz-HC8 / hz-LC2), IgG1.3f (antibody, V domains shown)
VH: B1 VH with K12V, M70L, I76S, E82Q, Y95F
VL: B1 VL with Q42K, V85T
notes: IgG1.3f heavy constant, common CL; expression supernatant; also called Sup 37
B14: humanized Y1238 hz33 (hz-HC7 / hz-LC3), IgG1.3f (antibody, V domains shown)
VH: B1 VH with K12V, I76S, E82Q, Y95F
VL: B1 VL with A43S
notes: IgG1.3f heavy constant, common CL; expression supernatant; also called Sup 33
B15: humanized Y1238 hz10 (hz-HC2 / hz-LC5), IgG1.3f (antibody, V domains shown)
VH: B1 VH with R40A, K74T
VL: B1 VL
notes: IgG1.3f heavy constant, common CL; expression supernatant; also called Sup 10
B16: humanized Y1238 hz8 (hz-HC2 / hz-LC3), IgG1.3f (antibody, V domains shown)
VH: B1 VH with R40A, K74T
VL: B1 VL with A43S
notes: IgG1.3f heavy constant, common CL; expression supernatant; also called Sup 8
B17: humanized Y1238 hz2 (hz-HC1 / hz-LC2), IgG1.3f (antibody, V domains shown)
VH: B1 VH with R40A, A72R, K74T
VL: B1 VL with Q42K, V85T
notes: IgG1.3f heavy constant, common CL; expression supernatant; also called Sup 2
B18: humanized Y1238 hz39 (hz-HC8 / hz-LC4), IgG1.3f (antibody, V domains shown)
VH: B1 VH with K12V, M70L, I76S, E82Q, Y95F
VL: B1 VL with A43S, P80A
notes: IgG1.3f heavy constant, common CL; expression supernatant; also called Sup 39

The binders below were run against T1, human-CD40 monomer (human, UniProt P25942 21-193, limits assumed) (assay: SPR 2 pt screen, Ab on protein A).
T1 construct: also called hCD40-monomer; human-CD40-monomer protein
T1 sequence (P25942 21-193 limits assumed): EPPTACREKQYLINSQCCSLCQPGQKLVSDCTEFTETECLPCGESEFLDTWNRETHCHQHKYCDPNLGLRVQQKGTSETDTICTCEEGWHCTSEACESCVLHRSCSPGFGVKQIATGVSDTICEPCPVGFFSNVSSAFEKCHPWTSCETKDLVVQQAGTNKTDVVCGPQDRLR
Protocol: The VH sequences were formatted in the context of an IgG1.3f isotype. The Vκ sequences were formatted as a full light chain with a common CL sequence. All 55 combinations of these humanized HC and LC constructs, as well as the chimeric Y1238 molecule were expressed as 3 ml supernatants for binding analysis by SPR. Each of the 56 supernatants, as well as a purified Y1238-chimeric IgG1 antibody, was captured on a protein A sensor chip and tested for binding to two concentrations (i.e., 200 nM and 1000 nM) of hCD40-monomer using BIAcore™ SPR in a screening assay. All antibodies, except for those containing hz-HC3, captured at high levels (>300 RU) using a 100-fold dilution of the expression supernatant, indicating a high antibody titer in the supernatant except for the hz-HC3 samples. The kinetic data for the two concentrations of hCD40-monomer were fit to a 1:1 Langmuir model, to yield estimates of the kinetic and affinity values for these interactions, and for comparison of the different molecules. […] Also, for a given heavy chain, the antibodies with light chains hz-LC1 or hz-LC2 had higher CD40 affinity than those with hz-LC3, hz-LC4 or hz-LC5.

Which Kd does the source give for B1 here?
The Kd was 6.6 nM.

And the koff?
The koff was 0.00028 s⁻¹.

What about the kon of the same binder?
The kon was 43000 M⁻¹ s⁻¹.

B2 was tested. Which Kd did it give?
The Kd was 8.3 nM.

What about the koff of the same binder?
The koff was 0.00037 s⁻¹.

What about the kon of the same binder?
The kon was 45000 M⁻¹ s⁻¹.

For B3, which Kd is on record?
The Kd was 2.9 nM.

What about the koff of the same binder?
Its koff is 0.00012 s⁻¹.

What about the kon of the same binder?
The kon was 40000 M⁻¹ s⁻¹.

What does the source list for B4?
Kd: 6.3 nM; koff: 0.00028 s⁻¹; kon: 45000 M⁻¹ s⁻¹

How did the Kd turn out when B5 was run?
Its Kd is 4.5 nM.

And the koff?
Its koff is 0.00017 s⁻¹.

And the kon?
The kon was 37000 M⁻¹ s⁻¹.

What does the source list for B6?
Kd: 3.5 nM; koff: 0.00015 s⁻¹; kon: 42000 M⁻¹ s⁻¹

With B7 as the binder, how does the Kd read?
Its Kd is 2.7 nM.

And the koff?
Its koff is 0.00012 s⁻¹.

And the kon?
The kon was 45000 M⁻¹ s⁻¹.

Which Kd does the source give for B8 here?
Its Kd is 3.7 nM.

What about the koff of the same binder?
Its koff is 0.00014 s⁻¹.

And the kon?
Its kon is 39000 M⁻¹ s⁻¹.

B9 was tested. Which Kd did it give?
Its Kd is 2.7 nM.

And the koff?
The koff was 0.00011 s⁻¹.

And the kon?
The kon was 43000 M⁻¹ s⁻¹.

Which Kd does the source give for B10 here?
The Kd was 9.2 nM.

And the koff?
Its koff is 0.00037 s⁻¹.

And the kon?
The kon was 40000 M⁻¹ s⁻¹.

How did the Kd turn out when B11 was run?
The Kd was 5.6 nM.

And the koff?
Its koff is 0.00024 s⁻¹.

And the kon?
The kon was 42000 M⁻¹ s⁻¹.

What does the source list for B12?
Kd: 4.4 nM; koff: 0.00017 s⁻¹; kon: 38000 M⁻¹ s⁻¹

Which results are given for B13?
Kd: 2.8 nM; koff: 0.00011 s⁻¹; kon: 37000 M⁻¹ s⁻¹

B14 was tested. Which Kd did it give?
The Kd was 8.7 nM.

And the koff?
The koff was 0.00035 s⁻¹.

And the kon?
The kon was 40000 M⁻¹ s⁻¹.

What does the source list for B15?
Kd: 5.9 nM; koff: 0.00027 s⁻¹; kon: 45000 M⁻¹ s⁻¹

Which Kd does the source give for B16 here?
The Kd was 6.2 nM.

And the koff?
Its koff is 0.00029 s⁻¹.

What about the kon of the same binder?
Its kon is 46000 M⁻¹ s⁻¹.

With B17 as the binder, how does the Kd read?
Its Kd is 5.2 nM.

And the koff?
The koff was 0.00023 s⁻¹.

And the kon?
Its kon is 45000 M⁻¹ s⁻¹.

What does the source list for B18?
Kd: 7.5 nM; koff: 0.0003 s⁻¹; kon: 40000 M⁻¹ s⁻¹
